Tests used:
[1] = target: human MET (soluble analyte in the Biacore assay) (human) (UniProt P08581); experiment: SPR (Biacore 2000): agent captured via goat anti-human antibody, human MET injected
[2] = target: full-length human MET (FL-MET) on cells (human) (UniProt P08581); experiment: FACS: inhibition of biotin-HGF binding to MET-transfected HEK-293T cells, agent at 10 µg/ml
[3] = target: full-length human MET (FL-MET) on cells (human) (UniProt P08581); experiment: FACS: inhibition of biotin-HGF binding to MET-transfected HEK-293T cells, agent at 0.16 µg/ml
[4] = target: full-length human MET (FL-MET) on cells (human) (UniProt P08581); experiment: FACS blocking assay on MET-transfected HEK-293T cells; blocked ligand: biotinylated HGF, PE-streptavidin
[5] = target: T1, human MET (soluble analyte in the Biacore assay) (human, UniProt P08581 25-932); experiment: SPR (Biacore 2000): agent captured via goat anti-human antibody, human MET injected
T1 sequence (P08581 25-932 limits assumed): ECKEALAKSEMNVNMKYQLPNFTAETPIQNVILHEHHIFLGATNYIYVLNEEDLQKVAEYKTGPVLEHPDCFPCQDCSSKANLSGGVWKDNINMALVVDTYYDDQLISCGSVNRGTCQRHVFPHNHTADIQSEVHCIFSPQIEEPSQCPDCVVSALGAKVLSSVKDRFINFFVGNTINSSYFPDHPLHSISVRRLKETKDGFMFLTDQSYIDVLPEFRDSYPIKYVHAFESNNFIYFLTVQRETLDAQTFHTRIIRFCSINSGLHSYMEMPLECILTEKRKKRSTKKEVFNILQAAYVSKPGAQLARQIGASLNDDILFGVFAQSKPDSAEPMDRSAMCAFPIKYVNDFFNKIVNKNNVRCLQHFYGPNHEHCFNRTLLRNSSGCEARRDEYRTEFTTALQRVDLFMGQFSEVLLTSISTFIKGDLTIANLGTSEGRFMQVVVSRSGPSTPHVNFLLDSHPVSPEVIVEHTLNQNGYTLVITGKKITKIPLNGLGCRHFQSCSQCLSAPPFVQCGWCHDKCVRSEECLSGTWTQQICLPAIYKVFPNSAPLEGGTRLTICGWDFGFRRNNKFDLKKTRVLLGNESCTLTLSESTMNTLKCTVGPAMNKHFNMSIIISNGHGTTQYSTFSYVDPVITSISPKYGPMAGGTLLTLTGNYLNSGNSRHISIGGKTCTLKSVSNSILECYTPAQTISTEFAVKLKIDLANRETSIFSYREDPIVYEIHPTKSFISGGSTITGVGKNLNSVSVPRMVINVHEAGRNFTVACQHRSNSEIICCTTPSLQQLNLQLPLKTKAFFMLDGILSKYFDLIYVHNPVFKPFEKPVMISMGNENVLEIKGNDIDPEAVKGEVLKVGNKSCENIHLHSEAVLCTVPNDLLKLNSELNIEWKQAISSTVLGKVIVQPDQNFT
Description: (§1) The KD of monovalent version of anti-MET antibody 73R009, monovalent anti-MET antibody 5D5, and anti-MET/FZD8-Fc bispecific agent 315B06 were determined using a Biacore 2000 system from Biacore Life Sciences (GE Healthcare). A goat anti-human antibody (Invitrogen H10500) was coupled to a carboxymethyl-dextran (CM5) SPR chip using standard amine-based chemistry (NHS/EDC) and blocked with ethanolamine. Antibodies were diluted to a concentration of 10 μg/ml in HBS-P-BSA (0.01M HEPES pH7.4, 0.15M NaCl, 0.005% v/v Polysorbate 20, 10 μg/ml BSA) and captured onto the chip via the anti-human antibody. Human MET was serially diluted 2-fold from 300 nM to 37.5 nM in HBS-P-BSA and injected sequentially over the captured anti-MET antibodies. MET association and dissociation was measured at each concentration. After each antigen injection 5 μl of 100 mM H₃P0₄ was injected to remove the antigen-antibody complex and a subsequent injection performed. Kinetic data were collected over time and were fit using the simultaneous global fit equation to yield affinity constants (KD values) for each agent.
In addition, the bispecific agent 315B06 appeared to have stronger affinity for human MET than anti-MET antibody 5D5.

[6] = target: T2, human Sema mutant Mut96,99 (F96L and Q99R; Sema-hCD4TM-GFP) on cells (human, UniProt P08581 25-515); experiment: FACS on transfected HEK-293T cells
T2 construct: not shown: human CD4 transmembrane domain and GFP (display and reporter carrier at the C end)
T2 sequence (P08581 25-515 F96L/Q99R limits assumed): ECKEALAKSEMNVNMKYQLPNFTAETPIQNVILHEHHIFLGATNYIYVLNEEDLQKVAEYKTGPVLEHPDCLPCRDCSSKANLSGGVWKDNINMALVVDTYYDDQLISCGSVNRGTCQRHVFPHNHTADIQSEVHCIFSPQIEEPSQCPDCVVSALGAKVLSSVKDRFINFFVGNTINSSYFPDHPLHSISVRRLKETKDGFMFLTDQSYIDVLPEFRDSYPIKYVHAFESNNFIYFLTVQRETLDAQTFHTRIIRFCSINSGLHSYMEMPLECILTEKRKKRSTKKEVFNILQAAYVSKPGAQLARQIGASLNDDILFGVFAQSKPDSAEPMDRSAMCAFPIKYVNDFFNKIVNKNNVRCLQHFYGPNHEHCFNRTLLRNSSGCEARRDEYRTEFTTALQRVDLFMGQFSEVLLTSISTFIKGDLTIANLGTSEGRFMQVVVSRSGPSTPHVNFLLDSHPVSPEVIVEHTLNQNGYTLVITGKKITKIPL
Description: (§2) To identify the MET epitope recognized by the anti-MET/FZD8-Fc bispecific agent, epitope mapping was performed. […] Therefore, site-directed mutagenesis was performed to create a series of human Sema mutants. Kunkel mutagenesis was used to replace specific amino acids in the human Sema sequence with the corresponding amino acids found in the mouse Sema sequence at predicted antibody-binding sites. The human Sema mutants were: Mut96,99 (F96L and Q99R), Mut96 (F96L), Mut99 (Q99R), Mut328 (Q328N), Mut331 (R331K), and Mut337,338 (L337P and N338S).
(§3) Mammalian expression plasmid vectors encoding a wild-type human Sema, a wild-type mouse Sema, a mouse/human Sema mutant wherein the 5′ end is mouse (aa 1-331) and the 3′ end is human (aa 332-515), and the human Sema mutants outlined above were generated by standard recombinant technology. These constructs comprise the transmembrane domain of a human CD4 protein and GFP (for example, Sema-hCD4TM-GFP). These expression constructs allow for expression of the Sema domain on the cell surface, as well as expression of GFP to monitor expression. […] The cells were washed and bound bispecific agents were detected with a secondary anti-human Fc antibody conjugated to allophycocyanin (APC). […] Labeled cells were analyzed by flow cytometry to measure the binding of 315B07 and 5D5/FZD8-Fc to the series of Sema mutants.

[7] = target: T3, human Sema mutant Mut99 (Q99R; Sema-hCD4TM-GFP) on cells (human, UniProt P08581 25-515); experiment: FACS on transfected HEK-293T cells
T3 construct: not shown: human CD4 transmembrane domain and GFP (display and reporter carrier at the C end)
T3 sequence (P08581 25-515 Q99R limits assumed): as the sequence (P08581 25-515 F96L/Q99R limits assumed) above, with L72F counted along it
Description: as §2, §3

[8] = target: T1, human MET (soluble analyte in the …); experiment: SPR (Biacore 2000) as described in Example 1
Description: as §1
Antibody 73R010 was used in a variation of the anti-MET/FZD8-Fc bispecific agent, and this variant bispecific agent is referred to as 315B07.

Chain of full-length human MET (FL-MET) on cells (human) (P08581 25-1390 limits assumed): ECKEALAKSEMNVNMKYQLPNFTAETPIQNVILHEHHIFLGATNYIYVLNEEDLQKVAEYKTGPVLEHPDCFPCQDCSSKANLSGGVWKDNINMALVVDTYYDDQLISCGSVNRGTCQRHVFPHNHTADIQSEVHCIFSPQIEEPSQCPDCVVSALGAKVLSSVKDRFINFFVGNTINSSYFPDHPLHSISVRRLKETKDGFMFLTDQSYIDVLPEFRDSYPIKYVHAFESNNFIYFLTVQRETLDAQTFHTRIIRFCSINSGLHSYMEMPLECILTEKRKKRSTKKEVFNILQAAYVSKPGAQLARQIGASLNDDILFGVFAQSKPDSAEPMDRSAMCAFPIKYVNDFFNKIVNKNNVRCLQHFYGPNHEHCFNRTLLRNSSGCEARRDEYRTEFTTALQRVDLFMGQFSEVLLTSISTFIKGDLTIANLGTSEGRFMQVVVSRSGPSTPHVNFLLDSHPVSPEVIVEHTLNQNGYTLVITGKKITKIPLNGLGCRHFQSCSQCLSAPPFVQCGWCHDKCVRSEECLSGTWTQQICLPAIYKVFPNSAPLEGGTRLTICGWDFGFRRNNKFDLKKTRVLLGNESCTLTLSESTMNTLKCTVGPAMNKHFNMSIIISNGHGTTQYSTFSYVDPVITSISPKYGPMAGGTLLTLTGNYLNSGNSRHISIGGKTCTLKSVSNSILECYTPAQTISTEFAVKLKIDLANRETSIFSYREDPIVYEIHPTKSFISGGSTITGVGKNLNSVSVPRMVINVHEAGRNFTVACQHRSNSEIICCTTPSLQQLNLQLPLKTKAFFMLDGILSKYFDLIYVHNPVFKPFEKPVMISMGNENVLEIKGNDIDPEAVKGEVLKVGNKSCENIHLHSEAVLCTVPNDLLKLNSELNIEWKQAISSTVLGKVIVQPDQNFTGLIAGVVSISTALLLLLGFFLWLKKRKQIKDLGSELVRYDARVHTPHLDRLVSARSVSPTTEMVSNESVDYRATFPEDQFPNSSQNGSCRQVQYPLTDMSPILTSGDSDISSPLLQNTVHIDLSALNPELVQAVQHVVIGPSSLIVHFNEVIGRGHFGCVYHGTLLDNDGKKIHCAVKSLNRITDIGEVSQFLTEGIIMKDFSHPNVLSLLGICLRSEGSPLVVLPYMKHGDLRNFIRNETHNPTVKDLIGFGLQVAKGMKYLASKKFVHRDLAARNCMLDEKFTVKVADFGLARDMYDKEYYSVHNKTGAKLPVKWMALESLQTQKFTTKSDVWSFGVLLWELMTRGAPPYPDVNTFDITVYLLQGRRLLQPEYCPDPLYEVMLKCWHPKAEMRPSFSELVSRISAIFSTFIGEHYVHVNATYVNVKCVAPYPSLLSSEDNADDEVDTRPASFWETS
Chain of human MET (soluble analyte in the Biacore assay) (human) (P08581 25-932 limits assumed): as the sequence (P08581 25-932 limits assumed) above

monovalent anti-MET antibody 5D5
Kd [1]: 7.2 nM
percent reduction of HGF binding to MET [2]: 70%
percent reduction of HGF binding to MET [3]: 28%
% Binding of hHGF at 0.16 ug/ml antibody [4]: 14.3%
% Binding of hHGF at 0.3 ug/ml antibody [4]: 10.6%
% Binding of hHGF at 0.625 ug/ml antibody [4]: 12%
% Binding of hHGF at 1.25 ug/ml antibody [4]: 8.54%
% Binding of hHGF at 2.5 ug/ml antibody [4]: 9.61%
% Binding of hHGF at 5 ug/ml antibody [4]: 6.67%
% Binding of hHGF at 10 ug/ml antibody [4]: 6.31%
% Inhibition of hHGF binding at 0.3 ug/ml antibody [4]: 47%
% Inhibition of hHGF binding at 0.625 ug/ml antibody [4]: 40%
% Inhibition of hHGF binding at 1.25 ug/ml antibody [4]: 57%
% Inhibition of hHGF binding at 2.5 ug/ml antibody [4]: 52%
% Inhibition of hHGF binding at 5 ug/ml antibody [4]: 67%

B1: anti-MET antibody 73R009 (bivalent “parental” antibody) (antibody, human IgG2, kappa, V domains shown)
VH: QVQLQESGPGLVKPSETLSLTCTVTGTTITASYAWSWIRQPPGKGLEWMGYISYSGGTDYNPSLKSRITISRDTFKNQFSLKLSSVTAADTATYYCARKGAYWGQGTLVTVSS
VL: DIVLTQSPATLSASPGEKVTLTCSASSSVSSSYLYWYQQKPGQAPKLLIYSTSNLASGVPARFSGSGSGTSYSLTISSLEPEDFATYYCHQWSSYPYTFGGGTKLEIKR
Kd [5]: 1.1 nM

B2: monovalent version of anti-MET antibody 73R009 (antibody, V domains shown)
VH: QVQLQESGPGLVKPSETLSLTCTVTGTTITASYAWSWIRQPPGKGLEWMGYISYSGGTDYNPSLKSRITISRDTFKNQFSLKLSSVTAADTATYYCARKGAYWGQGTLVTVSS
VL: DIVLTQSPATLSASPGEKVTLTCSASSSVSSSYLYWYQQKPGQAPKLLIYSTSNLASGVPARFSGSGSGTSYSLTISSLEPEDFATYYCHQWSSYPYTFGGGTKLEIK
notes: Only the 73R009 variable regions can be tied to this molecule; also called monovalent anti-MET antibody 73R009; monovalent version of 73R009
Kd [5]: 1.4 nM

B3: anti-MET/FZD8-Fc bispecific agent 315B06 (bispecific antibody, human IgG2, kappa)
heavy: QVQLQESGPGLVKPSETLSLTCTVTGTTITASYAWSWIRQPPGKGLEWMGYISYSGGTDYNPSLKSRITISRDTFKNQFSLKLSSVTAADTATYYCARKGAYWGQGTLVTVSSASTKGPSVFPLAPCSRSTSESTAALGCLVKDYFPEPVTVSWNSGALTSGVHTFPAVLQSSGLYSLSSVVTVPSSNFGTQTYTCNVDHKPSNTKVDKTVERKCCVECPPCPAPPVAGPSVFLFPPKPKDTLMISRTPEVTCVVVDVSHEDPEVQFNWYVDGVEVHNAKTKPREEQFNSTFRVVSVLTVVHQDWLNGKEYKCKVSNKGLPAPIEKTISKTKGQPREPQVYTLPPSREKMTKNQVSLTCLVKGFYPSDIAVEWESNGQPENNYKTTPPMLKSDGSFFLYSKLTVDKSRWQQGNVFSCSVMHEALHNHYTQKSLSLSPGK
light: DIVLTQSPATLSASPGEKVTLTCSASSSVSSSYLYWYQQKPGQAPKLLIYSTSNLASGVPARFSGSGSGTSYSLTISSLEPEDFATYYCHQWSSYPYTFGGGTKLEIKRTVAAPSVFIFPPSDEQLKSGTASVVCLLNNFYPREAKVQWKVDNALQSGNSQESVTEQDSKDSTYSLSSTLTLSKADYEKHKVYACEVTHQGLSSPVTKSFNRGEC
chain: ASAKELACQEITVPLCKGIGYNYTYMPNQFNHDTQDEAGLEVHQFWPLVEIQCSPDLKFFLCSMYTPICLEDYKKPLPPCRSVCERAKAGCAPLMRQYGFAWPDRMRCDRLPEQGNPDTLCMDYNRTDLTTTKVDKTVERKSCVECPPCPAPPVAGPSVFLFPPKPKDTLMISRTPEVTCVVVDVSHEDPEVQFNWYVDGVEVHNAKTKPREEQFNSTFRVVSVLTVVHQDWLNGKEYKCKVSNKGLPAPIEKTISKTKGQPREPQVYTLPPSREEMTKNQVSLTCLVEGFYPSDIAVEWESNGQPENNYKTTPPMLDSDGSFFLYSELTVDKSRWQQGNVFSCSVMHEALHNHYTQKSLSLSPGK
notes: Heterodimer with one anti-MET arm (heavy and light chain) and one FZD8-Fc soluble receptor arm; also called bispecific anti-MET/FZD8-Fc agent 315B06; 351B06 [sic]
Kd [5]: 1.8 nM

B4: anti-MET/FZD8-Fc bispecific agent 315B07 (bispecific antibody, human IgG2, kappa)
heavy: QVQLQESGPGLVKPSETLSLTCTVSGTTITASYAWSWIRQPPGKGLEWMGYISYSGGTDYNPSLKSRVTISRDTFKNQFSLKLSSVTAADTAVYYCARKGAYWGQGTLVTVSSASTKGPSVFPLAPCSRSTSESTAALGCLVKDYFPEPVTVSWNSGALTSGVHTFPAVLQSSGLYSLSSVVTVPSSNFGTQTYTCNVDHKPSNTKVDKTVERKCCVECPPCPAPPVAGPSVFLFPPKPKDTLMISRTPEVTCVVVDVSHEDPEVQFNWYVDGVEVHNAKTKPREEQFNSTFRVVSVLTVVHQDWLNGKEYKCKVSNKGLPAPIEKTISKTKGQPREPQVYTLPPSREKMTKNQVSLTCLVKGFYPSDIAVEWESNGQPENNYKTTPPMLKSDGSFFLYSKLTVDKSRWQQGNVFSCSVMHEALHNHYTQKSLSLSPGK
light: EIVLTQSPATLSLSPGERATLSCSASSSVSSSYLYWYQQKPGQAPRLLIYSTSNLASGIPARFSGSGSGTDFTLTISRLEPEDFAVYYCHQWSSYPYTFGQGTKLEIKRTVAAPSVFIFPPSDEQLKSGTASVVCLLNNFYPREAKVQWKVDNALQSGNSQESVTEQDSKDSTYSLSSTLTLSKADYEKHKVYACEVTHQGLSSPVTKSFNRGEC
chain: ASAKELACQEITVPLCKGIGYNYTYMPNQFNHDTQDEAGLEVHQFWPLVEIQCSPDLKFFLCSMYTPICLEDYKKPLPPCRSVCERAKAGCAPLMRQYGFAWPDRMRCDRLPEQGNPDTLCMDYNRTDLTTTKVDKTVERKSCVECPPCPAPPVAGPSVFLFPPKPKDTLMISRTPEVTCVVVDVSHEDPEVQFNWYVDGVEVHNAKTKPREEQFNSTFRVVSVLTVVHQDWLNGKEYKCKVSNKGLPAPIEKTISKTKGQPREPQVYTLPPSREEMTKNQVSLTCLVEGFYPSDIAVEWESNGQPENNYKTTPPMLDSDGSFFLYSELTVDKSRWQQGNVFSCSVMHEALHNHYTQKSLSLSPGK
notes: Heterodimer with one humanized anti-MET arm (73R010) and one FZD8-Fc soluble receptor arm; also called OMP-315B07; 3151307 [sic]
binding result [6]: no binding
binding result [7]: no binding
Kd [8]: 0.126 nM
